Assay results taken from doi:10.1101/2022.12.25.521893 (bioRxiv, 2022).
Ends that are not written are not given here.

B1: endogenous E. coli lipoprotein YedD (natural protein)
chain: CAEVENYNNVVKTPAPDWLAGYWQTKGPQRALVSPEAIGSLIVTKEGDTLDCRQWQRVIAVPGKLTLMSDDLTNVTVKRELYEVERDGNTIEYDGMTMERVDRPTAECAAALDKAPLPTPLP

Target: LptDE complex from Shigella flexneri with a hexahistidine tag on LptE (Shigella flexneri, UniProt Q83SQ0;Q0T6Q1)
Assay: native MS

Sequence of LptDE complex from Shigella flexneri with a hexahistidine tag on LptE (Q83SQ0 25-784, chain 1 of 2): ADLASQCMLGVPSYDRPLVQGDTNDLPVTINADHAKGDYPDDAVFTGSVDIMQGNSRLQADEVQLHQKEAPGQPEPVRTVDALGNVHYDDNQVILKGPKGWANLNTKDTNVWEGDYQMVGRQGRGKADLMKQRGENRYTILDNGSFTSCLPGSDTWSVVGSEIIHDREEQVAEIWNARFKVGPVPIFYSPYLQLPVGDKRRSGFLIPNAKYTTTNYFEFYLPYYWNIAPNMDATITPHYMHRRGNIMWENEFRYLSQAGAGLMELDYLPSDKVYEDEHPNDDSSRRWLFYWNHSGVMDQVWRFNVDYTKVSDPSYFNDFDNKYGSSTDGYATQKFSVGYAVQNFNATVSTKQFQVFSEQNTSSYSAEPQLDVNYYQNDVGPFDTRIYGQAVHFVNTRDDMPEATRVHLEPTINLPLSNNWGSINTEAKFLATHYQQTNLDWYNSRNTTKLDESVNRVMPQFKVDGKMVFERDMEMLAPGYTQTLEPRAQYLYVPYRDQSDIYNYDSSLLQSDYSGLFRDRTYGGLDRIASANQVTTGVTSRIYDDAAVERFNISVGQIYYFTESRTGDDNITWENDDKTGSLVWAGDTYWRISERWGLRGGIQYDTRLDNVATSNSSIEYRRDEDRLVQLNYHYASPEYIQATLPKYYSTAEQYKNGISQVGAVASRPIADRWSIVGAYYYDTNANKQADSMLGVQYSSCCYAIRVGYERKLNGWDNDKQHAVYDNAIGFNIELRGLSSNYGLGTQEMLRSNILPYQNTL
Sequence of LptDE complex from Shigella flexneri with a hexahistidine tag on LptE (Q0T6Q1 19-193, chain 2 of 2): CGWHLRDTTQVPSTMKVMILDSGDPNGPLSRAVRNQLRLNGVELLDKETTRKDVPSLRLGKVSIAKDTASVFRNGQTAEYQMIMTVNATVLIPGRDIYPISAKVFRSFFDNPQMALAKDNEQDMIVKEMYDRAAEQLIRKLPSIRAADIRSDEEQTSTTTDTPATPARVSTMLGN

Binder	stoichiometry N
CGLKGPLYFPPADKNAPPPTKPVETQTQSTVPDKNDRATGDGPSQVNY (natural protein, also: three acyl chains (R1, R2, R3) on N-terminal Cys) [endogenous Escherichia coli lipoprotein YifL]	1
B1	1
